Test results as given in patent US11312769B2, “Anti-TMEFF1 antibodies and antibody drug conjugates” (Bluefin BioMedicine, Inc., priority 2017, dated 2022).
Where a chain is given by its changes, count along the chain named. Names and notes keep the numbering of the source.

B1: 29C4: human anti-TMEFF1 IgG1 antibody; VH SEQ ID NO: 118, VL SEQ ID NO: 122 (antibody, V domains shown)
VH: QVQLVESGGGVVQPGRSLRLSCAASGFTFSNYGMHWVRQAPGKGLEWVAVIWYDGGPKFYADSVKGRFTISRDNSKNTLYLQMNSLRAEDTAVYYCARSYCGGDCYPFDYWGQGDLVTVSS
VL: DIQMTQSPSSLSASVGDRVTITCRASQGISNYLAWYQQKPGKVPKLLIYAASTLQSGVPSRFSGSGSGTDFTLTISSLQPEDVATYYCQKYYSAPWTFGQGTKVEIK
B2: 3H9: human anti-TMEFF1 IgG1 antibody; VH SEQ ID NO: 114, VL SEQ ID NO: 117 (antibody, V domains shown)
VH: EVQLVESGGGLVKPGGSLRLSCAASGFVFSYAWMNWVRQAPGKGLEWVGRIKSKTEGGTTDNAAPVKGRFTISREDSKNTLYLQLNSLKIEDTAVYYCTTGRIAAAGFDYWGQGTLVTVSS
VL: DAVVTQESALTTSPGETVTLTCRSSTGTVTTSNYANWVQEKPDHLFTGLIAGTNNRAPGVPARFSGSLIGDKAALTITGAQTEDEAIYFCALWYSNHWVFGGGTKLTVLG
B3: 35B1: human anti-TMEFF1 IgG1 antibody; VH SEQ ID NO: 66, VL SEQ ID NO: 70 (antibody, V domains shown)
VH: QVQLVESGGGVVQPGRSLRLSCAASGFTFTTYGMHWVRQAPGKGLEWVAVVWFEGNSKFYIDSVKGRFIISRDNSKNTLFLQMNSLRAEDTAVYYCARANCGADCYPFDYWGQGTLVTVSS
VL: B1 VL with T72S, Q79R, Y92N
B4: 37G7: human anti-TMEFF1 IgG1 antibody; VH SEQ ID NO: 85, VL SEQ ID NO: 88 (antibody, V domains shown)
VH: B3 VH with T31S, F53Y, N56S, I61V, F80Y, N100Y, A103G
VL: B1 VL with Y92N
B5: M17: human anti-TMEFF1 IgG1 antibody; VH SEQ ID NO: 79, VL SEQ ID NO: 82 (antibody, V domains shown)
VH: QVQLVESGGGVVQPGRSLRLSCAASGFTFRSYGMHWVRQAPGKGLEWVALIWYDGGDQYYADSVKGRFTISRDSSKSTLYLQMNSLRAEDTAVYYCARAQCGDDCYPFDYWGQGTLVTVSS
VL: B1 VL with S30Y, Y92N, A94D, V104L
B6: M33F: human anti-TMEFF1 IgG1 antibody; VH SEQ ID NO: 9, VL SEQ ID NO: 141 (antibody, V domains shown)
VH: QVQLQESGPGLVKPSETLSLTCAVSGYSISSGYFWGWIRQPPGKKLEWIGSIYHSGSTYYNPSLKSRVTMSVDTSKNQFSLKLSSVTAADTAVYYCAREGDCSGGICYWYFDLWGRGTLVTVSS
VL: DIQMTQSPSSLSASVGDRVTITCRASQGISNYLAWYQQKPGKVPKLLIYAASTLQSGVPSRFSGSGSGTEVTLTISSLQSEDFAVYYCQQYNKWPLTFGGGTKLEIK
B7: M35: human anti-TMEFF1 IgG1 antibody; VH SEQ ID NO: 134, VL SEQ ID NO: 138 (antibody, V domains shown)
VH: QVQLQESGPGLVKPSGTLSLTCAVSGGSISSSNWWSWVRQPPGKGLEWIGEIYHSGSTNYNPSLKSRVTISVDKSKNQFSLKLSSVTAADTAVYYCATMVRGRYYYYGMDVWGQGTTVTVSS
VL: DIVMTQSPLSLPVTPGEPASISCRSSQSLLHSDGYNFLDWYLQKPGQSPQFLIYLGSNRASGVPDRFSGVGSGTDFTLQISRVEAEDFGVYYCMQALQAPWTFGQGTKLEIK
B8: M1H1: human anti-TMEFF1 IgG1 antibody; VH SEQ ID NO: 9, VL SEQ ID NO: 78 (antibody, V domains shown)
VH: B6 VH
VL: B6 VL with E70D, V71F, S80P
B9: 10C10: human anti-TMEFF1 IgG1 antibody; VH SEQ ID NO: 96, VL SEQ ID NO: 93 (antibody, V domains shown)
VH: QVQLVESGGGVVQPGRSLRLSCATSGFTFSIYGMHWVRQAPGKGLEWVAIIWYDGNKKYYADSVKGRFTISRDNSKNTLYLQMNSLRAEDTAVYYCARDPYTSSLDYWGQGTLVTVSS
VL: B6 VL with M4L, S10F, N31S, V43A, V71F, S80P, V85T, Y91L, K93S, W94Y
B10: 11F9: human anti-TMEFF1 IgG1 antibody; VH SEQ ID NO: 71, VL SEQ ID NO: 75 (antibody, V domains shown)
VH: B2 VH with V28T, N35S, E56D, N62Y, E75D, G112A
VL: B2 VL with A74V
B11: 18C2: human anti-TMEFF1 IgG1 antibody; VH SEQ ID NO: 89, VL SEQ ID NO: 93 (antibody, V domains shown)
VH: B9 VH with T24A, K43M, W52R, N56S, K57N, Q82R, Y101F
VL: B6 VL with M4L, S10F, N31S, V43A, V71F, S80P, V85T, Y91L, K93S, W94Y
B12: 19D9: human anti-TMEFF1 IgG1 antibody; VH SEQ ID NO: 99, VL SEQ ID NO: 101 (antibody, V domains shown)
VH: B9 VH with T24A, I50N, N56S, A92S
VL: DIQLTQSPSFLSASVGDRVTITCRASQGISSYLAWYQQKPGKAPKLLIYTASTLQSGVPSRFSGSGSGTEFTLTISSLQPEDFATYYCQQLNSYPLTFGGGTKLEIK

The molecules below were run on hTMEFF1-ECD recombinant deletion mutants (assay: Binding domain determination with hTMEFF1-ECD deletion mutants (Octet)). Settings: full length TMEFF1 ECD vs ΔFS1, ΔFS2, ΔFS1&FS2.
Parameters: species or system human; key: FS1—follistatin domain 1; FS2—follistatin domain 2
Text: TMEFF1 recombinant proteins expressing 3 different deletion mutants, AFS1 (AFollistatin Domain 1), AFS2 (AFollistatin Domain 2) or AFS1&FS2 were used to identify binding domains among different antibodes using an Octet Red instrument with Anti-Penta-His (HIS 1K) biosensors. Expression of the 3 deletion mutants was confirmed by WB analysis. 100 ngs of purified TMEFF1 ECD was run along with unpurified supernatant of transfected CHO cells with the different deletion mutants. HIS 1K biosensors were loaded by submerging the biosensors into wells containing 10 ug/ml of full length TMEFF1 or one of 3 different deletion mutants (AFS1, AFS2 or AFS1&FS2) for 60 seconds. Following the loading step, the biosensors were then dipped for 30 seconds in PBS before immersion for 30 seconds in 200 ul of unpurified recombinant antibodies for 30 seconds. The biosensors were then dipped briefly (30 seconds) in PBS to observe any dissociation. Samples were determined to show binding or no binding by comparing to a control well that contained no recombinant antibody. Differential binding to the deletion mutants allowed for determination of binding sites on TMEFF1 recombinant protein. For cases where the antibody bound all 3 recombinant proteins, the binding is outside of the deleted domains. For the case where binding is observed only on full length TMEFF1 and AFS2, the antibody is binding in the ΔFS1 domain.
26 of the identified antibodies were checked for epitope domain binding by Octet™ using the hTMEFF1-ECD recombinant deletion mutants (see Table 7, below).

Row | Molecule | Binding region (epitope domain binding)
1 | B1 | FS1
2 | B2 | other
3 | B3 | FS1
4 | B4 | FS1
5 | B5 | FS1
6 | B6 | other
7 | B7 | FS1
8 | B8 | other
9 | B9 | FS1
10 | B10 | other
11 | B11 | FS1
12 | B12 | FS1
